Data published in PMC11708414.

Target: heavy mero-myosin (HMM) (rabbit)

Substance	unregulated myosin ATPase: KM for ACTC protein, 2 mM ATP
R312C cardiac actin variant (R312C-ACTC) (natural protein)	16.6 µM
R312H cardiac actin variant (R312H-ACTC) (natural protein)	24.8 µM
wildtype cardiac actin (WT-ACTC) (from UniProt P68032 1-377) (natural protein)	5.63 µM
